# Article PMC10051150, “Structure and Dynamics of Three Escherichia coli NfsB Nitro-Reductase Mutants Selected for Enhanced Activity with the Cancer Prodrug CB1954” (International Journal of Molecular Sciences, 2023)
# Biological target: the molecule itself
# Assay: crystal structure; crystals from 10–18% PEG 4000, 50–200 mM sodium acetate buffer pH 4.6, 15 mM nicotinic acid (where present), 15% ethylene glycol; molecular replacement with PDB 1ICR; two subunits in the asymmetric unit
row,Protein,binding result
1,"T41L/N71S NfsB (enzyme, Escherichia coli, Escherichia coli NfsB nitroreductase, 24 kDa subunit, expressed as the native protein; Expressed 'as the native proteins', so no tag is stated; Homodimer with one FMN per active site; also called double mutant; T41L/N71S mutant; source: E. coli BL21 (λDE3), pET11c, purified (Phenyl Sepharose, Q-Sepharose)) MDIISVALKRHSTKAFDASKKLTPEQAEQIKTLLQYSPSSLNSQPWHFIVASTEEGKARVAKSAAGNYVFSERKMLDASHVVVFCAKTAMDDVWLKLVVDQEDADGRFATPEAKAANDKGRKFFADMHRKDLHDDAEWMAKQVYLNVGNFLLGVAALGLDAVPIEGFDAAILDAEFGLKEKGYTSLVVVPVGHHSVEDFNATLPKSRLPQNITLTEV",binds
2,"T41Q/N71S/F124T NfsB (enzyme, Escherichia coli, Escherichia coli NfsB nitroreductase, 24 kDa subunit, expressed as the native protein; Expressed 'as the native proteins', so no tag is stated; Homodimer with one FMN per active site; also called triple mutant; T41Q/N71S/F124T mutant; source: E. coli BL21 (λDE3), pET11c, purified (Phenyl Sepharose, Q-Sepharose)) MDIISVALKRHSTKAFDASKKLTPEQAEQIKTLLQYSPSSQNSQPWHFIVASTEEGKARVAKSAAGNYVFSERKMLDASHVVVFCAKTAMDDVWLKLVVDQEDADGRFATPEAKAANDKGRKFTADMHRKDLHDDAEWMAKQVYLNVGNFLLGVAALGLDAVPIEGFDAAILDAEFGLKEKGYTSLVVVPVGHHSVEDFNATLPKSRLPQNITLTEV",binds
3,"T41Q/N71S/F124T/M127V NfsB (enzyme, Escherichia coli, Escherichia coli NfsB nitroreductase, 24 kDa subunit; also called quadruple mutant; T41Q/N71S/F124T/M127V mutant; source: initially purified from a UT5600 E. coli lysogen, later also recloned into pET11c; purified (Phenyl Sepharose, Q-Sepharose)) MDIISVALKRHSTKAFDASKKLTPEQAEQIKTLLQYSPSSQNSQPWHFIVASTEEGKARVAKSAAGNYVFSERKMLDASHVVVFCAKTAMDDVWLKLVVDQEDADGRFATPEAKAANDKGRKFTADVHRKDLHDDAEWMAKQVYLNVGNFLLGVAALGLDAVPIEGFDAAILDAEFGLKEKGYTSLVVVPVGHHSVEDFNATLPKSRLPQNITLTEV",binds
